In assay [1] the target is T1, wild type soluble Fas ligand (WT-sFasL), long form, amino acids 103 to 281 (human, UniProt P48023 103-281).
T1 construct: human Fas ligand (FasL, CD178), soluble long form, amino acids 103 to 281 of the 281 amino acid protein; cloned in pSecTag/FRT/V5-His-TOPO with stop codons, so the V5-His tag is not expressed ('native form'); Secreted from the pSecTag vector; the oligomeric state was not measured here; also called wild type sFasL; long form of sFasL
T1 sequence (looked up): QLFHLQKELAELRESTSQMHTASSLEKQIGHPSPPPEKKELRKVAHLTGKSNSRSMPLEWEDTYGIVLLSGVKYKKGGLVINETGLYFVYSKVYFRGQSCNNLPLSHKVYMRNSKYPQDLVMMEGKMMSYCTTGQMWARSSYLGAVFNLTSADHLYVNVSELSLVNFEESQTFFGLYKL
The experiment in a line: ELISA; direct binding: wells coated with recombinant human soluble Fas, 5 ug/ml; serial 3-fold dilutions of WT or mut-sFasL, 2 hours; bound sFasL detected with a polyclonal anti-human FasL antibody. The settings on record: both partners purified.

The target of assay [2] is T2, biotinylated wild type soluble Fas ligand (biotinylated WT-sFasL) (human, UniProt P48023 103-281, biotin (EZ-Link Sulfo-NHS-LC-Biotin), sites not stated).
T2 construct: human Fas ligand (FasL, CD178), soluble long form, amino acids 103 to 281; the same protein as m1, biotinylated after purification; Same construct as m1, chemically biotinylated
T2 sequence (looked up): T1 sequence (looked up)
Put plainly: ELISA; competition: wells coated with recombinant human soluble Fas (250 ng/ml); biotinylated WT sFasL (70 ng/ml) mixed with serial 3-fold dilutions of WT or 8-site mutated sFasL, 2 hours; biotin detected with HRP-streptavidin. The settings on record: both partners purified.

B1: recombinant human soluble Fas receptor (receptor, UniProt P25445 26-173, looked up)
chain: QVTDINSKGLELRKTVTTVETQNLEGLHHDGQFCHKPCPPGERKARDCTVNGDEPDCVPCQEGKEYTDKAHFSSKCRRCRLCDEGHGLEVEINCTRTQNTKCRCKPNFFCNSTVCEHCDPCTKCEHGIIKECTLTSNTKCKEEGSRSN
notes: human Fas (CD95), recombinant soluble receptor from PeproTech; No catalogue number is printed; also called recombinant human Fas; CD95; source: bought: PeproTech
Take B1: the binding result in assay [1] and in assay [2] was “binds” each time.

Source of the values: publication PMC8211282, “The bioactivity of soluble Fas ligand is modulated by key amino acids of its stalk region” (PLoS ONE, 2021).
